Results from patent US5948825A, “Microemulsion preparation containing a slightly absorbable substance” (Institute for Advanced Skin Research Inc., priority 1993, dated 1999).

Legend:
[1] = absorption by the rectum (through the mucous membrane); type: in vivo; settings: rats; relative to subcutaneous injection (integrated blood concentration over time) = 100%
Method: Rats were starved from the day before experiment until there was little feces left in the abdomen. […] Immediately after the injection, the anus was bound with a rubber band to prevent the leakage of the microemulsion. Blood was sampled at specified time intervals and the concentration of the drug in the blood was determined.

[2] = administration into the nasal cavity, closure technique; type: in vivo; settings: rats; relative to subcutaneous injection (integrated blood concentration over time) = 100%
Description: Rats were anesthetized and medisected in the neck to expose the windpipe and esophagus. Part of the windpipe was incised and a polyethylene tube was inserted into the windpipe to secure the airway, followed by ligation. The nostril and the opening in the incisive caval on the oral cavity side were closed with an adhesive. Part of the esophagus was incised for insertion of a nutrition catheter until its end reached into the nasal cavity. The part of the esophagus into which the nutrition catheter was inserted was ligated. […] Blood was sampled at specified time intervals and the change in the concentration of the drug in the blood was determined over time.
Availability: Relative value with the availability upon subcutaneous

[3] = absorption by the alimentary tract (duodenum); type: in vivo, rats; settings: route not given; relative to subcutaneous injection = 100%
Method: Rats were incised in the abdomen and a silicone rubber tube was passed through the alimentary tract from the stomach wall to the duodenum, followed by suturing of the stomach wall, peritoneum and skin through which the tube penetrated. […] As in (1), blood was sampled at specified time intervals and the concentration of the drug in the blood was determined.

| Substance | Availability, rectum [1] | Availability, nasal cavity [2] [%] | availability values (macromolecular peptides such as erythropoietin) [3] |
| --- | --- | --- | --- |
| calcitonin: peptide drug of low absorbability through the mucous membrane | 22-23% | 50 |  |
| erythropoietin: macromolecular peptide drug |  |  | 2-3% |
